# Test results: PMC5559459, “Disruption of the structural and functional features of surfactant protein A by acrolein in cigarette smoke” (Scientific Reports, 2017)
# Target: T1, recombinant human TLR4 (hTLR4) (human, UniProt O00206 24-631)
# T1 construct: Toll-like receptor 4, human, recombinant; No catalogue number is printed; the bought protein is probably a soluble extracellular construct with a tag (surmise); source: bought: Sino Biological Inc
# Assay: ELISA; 500 ng hTLR4 coated on 96-well plates; 5 μg SP-A in 10 mM HEPES pH 7.4, 0.15 M NaCl, 5 mM CaCl2, 2% fatty acid-free BSA, 37 °C, 5 h; detected with anti-human SP-A polyclonal antibody and HRP anti-rabbit IgG; background (vehicle) subtracted
# Settings: both partners purified
# T1 sequence (O00206 24-631): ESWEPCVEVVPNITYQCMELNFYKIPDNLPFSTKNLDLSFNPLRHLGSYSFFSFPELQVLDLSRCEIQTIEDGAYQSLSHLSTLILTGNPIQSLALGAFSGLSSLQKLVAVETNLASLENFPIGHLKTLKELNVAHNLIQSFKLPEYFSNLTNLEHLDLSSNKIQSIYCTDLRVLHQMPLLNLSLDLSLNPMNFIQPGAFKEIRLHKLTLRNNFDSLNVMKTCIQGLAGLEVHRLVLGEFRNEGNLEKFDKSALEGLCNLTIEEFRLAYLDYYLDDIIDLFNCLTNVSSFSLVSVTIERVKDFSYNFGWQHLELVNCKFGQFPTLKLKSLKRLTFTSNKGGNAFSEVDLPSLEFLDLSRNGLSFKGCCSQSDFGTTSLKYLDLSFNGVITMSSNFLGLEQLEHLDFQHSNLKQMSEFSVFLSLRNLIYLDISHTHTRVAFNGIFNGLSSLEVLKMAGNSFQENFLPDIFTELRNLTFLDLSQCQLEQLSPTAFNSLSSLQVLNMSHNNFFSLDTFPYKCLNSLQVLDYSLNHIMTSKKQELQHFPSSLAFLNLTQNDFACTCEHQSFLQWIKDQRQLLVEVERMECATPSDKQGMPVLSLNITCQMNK
row,percent decrease of binding against unmodified hSP-A,Binder
1,71.9%,"cigarette smoke extract (CSE)-modified recombinant human SP-A (natural protein, adducts from cigarette smoke extract (acrolein-lysine adducts, aldehyde adducts, modified free thiols); sites not mapped, pulmonary surfactant protein A, human SP-A1 cDNA expressed and secreted by CHO-K1 cells; Chemically modified form of m1; heterogeneous adducts; also called CSE-modified SP-A; hSP-A pre-incubated with CSE; source: CHO-K1 cells, purified (mannose-Sepharose); 5 µM hSP-A incubated with 10% CSE in 5 mM Tris-HCl pH 7.4 at 37 °C for 4 h, then dialyzed) not shown"
2,72.6%,"acrolein (100 µM)-modified recombinant human SP-A (natural protein, acrolein adducts; at a 20:1 molar ratio of acrolein to SP-A six modified residues were identified: His39, His116, Cys155, Lys180, Lys221, Cys224, pulmonary surfactant protein A, human SP-A1 cDNA expressed and secreted by CHO-K1 cells; Chemically modified form of m1; the sites were mapped by MS on a sample of 25 µM hSP-A with 500 µM acrolein (same 20:1 ratio); also called acrolein (100 μM)-modified SP-A; hSP-A pre-incubated with 100 µM acrolein; source: CHO-K1 cells, purified (mannose-Sepharose); 5 µM hSP-A incubated with 100 µM acrolein in …) not shown"
3,77.1%,"acrolein (10 µM)-modified recombinant human SP-A (natural protein, acrolein adducts (acrolein-lysine adducts, aldehyde adducts, modified free thiols); the sites were not mapped at this 2:1 ratio, pulmonary surfactant protein A, human SP-A1 cDNA expressed and secreted by CHO-K1 cells; Chemically modified form of m1; heterogeneous adducts; also called acrolein (10 μM)-modified SP-A; hSP-A pre-incubated with 10 µM acrolein; source: CHO-K1 cells, purified (mannose-Sepharose); 5 µM hSP-A incubated with 10 µM acrolein in 5 mM Tris-HCl pH 7.4 at 37 °C for 4 h, then dialyzed) not shown"
